The record followed here is patent US20220347267A1, “METHODS TO IMPROVE PATIENT RESPONSE TO IMMUNE CHECKPOINT INHIBITORS AND FUNCTIONAL TESTS TO PREDICT RESPONSE” (Biomarker Strategies, LLC, priority 2019, published 2022).

What all share (assay type): cell-based, human
For one assay, the system named is H2087 cells. As to the kind of experiment: PD-L1 western blot after modulators (EM and MTAs). The following applies: NSCLC H2087, 30 minutes, 3 hours, 24 hours. The text has this: (§1) Cell lines were acquired from ATCC, Sigma, or DSMZ. Human non-small cell lung carcinoma (NSCLC) cell lines H292 (ATCC no. CRL-1848.), H1299 (ATCC no. CRL-5803), H520 (ATCC no. CRL-5811), CALU6 (ATCC no. HTB-56), H1975 (ATCC no. CRL-5908), H460 (ATCC no. HTB-177), H2126 (ATCC no. CCL-256), H1650 (ATCC no. CRL-5883), and H2087 (ATCC no. CRL-5922) were used for this experiment along with head and neck squamous cell carcinoma (HNSCC) cell lines BHY (DSMZ ACC 404), CAL27 (ATCC no. CRL-2095), KYSE410 (Sigma), and A253 (ATCC no. HTB-41), melanoma cell lines A375 (ATCC no. CRL-1619), COL0853 (Sigma), and MM127 (Sigma) pancreatic cancer cell lines BXPC3 (ATCC no. CRL-1687), colorectal cancer cell lines […], HCT116 (ATCC no. CCL-247EMT), and breast cancer cell lines BT549 (ATCC no. HTB-122), BT20 (ATCC no. HTB-19), and T47D (ATCC no. HTB-133). Cells were maintained in manufacturer-recommended conditions at 37° C. inside humidified 5% CO2 incubators. Sub-cultivation and harvesting for all cell lines were performed using Accutase (GIBCO Life Technologies; cat. no. A1110501) at 37° C. for 10 minutes. Cell viability was measured using trypan blue exclusion staining in conjunction with the Countess II Automated Cell Counter (Thermo Fischer Scientific; cat. no. AMQAX1000). Measurements were made in duplicate and the average number of viable cells was recorded prior to experiments.
(§2) Enhancer Molecule and Therapies: IFNγ, (10 ng/ml; Sigma Aldrich, cat.no 11040596001), TNFα (10 ng/ml; BD Biosciences cat. no. 554618), Osimertinib (100 ng/ml; Selleckchem cat.no. S7297), Everolimus (100 ng/ml; Selleckchem cat.no S1120), GSK458 (10 ng/ml; Selleckchem cat. no. S2658), TNFb (50 ng/ml; Sigma Aldrich cat. no.), GSK795 (1,000 ng/ml; Selleckchem cat. no. S7492), IL-12 (50 ng/ml; Sigma Aldrich SRP3073), GM-CSF (50 ng/ml; Sigma Aldrich cat. no. G5035), IL-1a (1 ng/ml; Sigma Aldrich cat. no. 12778-), IL-6 (50 ng/ml; Sigma Aldrich), IL-17 (100 ng/ml; Sigma Aldrich cat. no. SRP3080), TGFb (1 ng/ml; Sigma Aldrich cat. no. T7039), and IL-10 (50 ng/ml; Sigma Aldrich cat. no. SRP3071) were administered to cell lines for various times including 30 minutes, 3 hour, and 24 hour time intervals prior to cell lysis and protein extraction.
(§3) To determine the effects of the aforementioned molecules on the modulation of PD-L1, we selected various NSCLC, HNSCC, breast cancer, melanoma, colorectal cancer, and pancreatic cancer cell lines as examples. Other diseases or cell lines could be used readily as could more complex samples such as cells isolated from xenografts and clinical samples. Cells were plated, for three different time points (30 minutes, 3 hours, and 24 hours), inside 6-well petri dishes with 2 mL of appropriate medium. Plates were incubated for 24 hours in 5% CO2 incubators at 37° C. After 24 hours, each 6-well plate was washed with PBS (Gibco Life Technologies, cat. no. 10010023) followed by fresh media being added along with each cell line's vehicle control or appropriate modulator for each specific time point, and were placed in CO2 incubators until their modulation time point was reached. Other conditions can be readily used, such as processing on automated systems such as SnapPath. At the end of each time point, while keeping plates on ice, cell lysis was conducted by aspirating culture medium from each plate, washing of each plate three times with 5 ml of cold PBS (Gibco Life Technologies, cat. no. 10010023) and culminated with the addition of cold 1× lysis buffer containing (Cell Signaling, cat. no. 9803 S) protease inhibitor cocktail (Cell Signaling, cat. no. 5871S), phosphatase inhibitor cocktail (Cell Signaling, cat. no. 5870S), and PMSF (Fisher Scientific, cat. no. ICN19538101). Plates were then placed on ice for ten minutes, swirling each plate intermittently. Aliquots of protein lysates were prepared and then stored at −80° C. until protein quantification and Western blot analysis was to be conducted. […]
Background: A western blot detects proteins with antibodies after separation by electrophoresis.

In assay [1] the test system is various NSCLC, HNSCC, breast cancer, melanoma, colorectal cancer, and pancreatic cancer cell lines. As to the kind of experiment: PD-L1 western blot after modulators, summary over all samples. The following applies: depending on the sample, summary of Table 3.
Text: as §1
(§4) T7039), and IL-10 (50 ng/ml; Sigma Aldrich cat. no. SRP3071) were administered to cell lines for various times including 30 minutes, 3 hour, and 24 hour time intervals prior to cell lysis and protein extraction.
(§5) To determine the effects of the aforementioned molecules on the modulation of PD-L1, we selected various NSCLC, HNSCC, breast cancer, melanoma, colorectal cancer, and pancreatic cancer cell lines as examples. Other diseases or cell lines could be used readily as could more complex samples such as cells isolated from xenografts and clinical samples. Cells were plated, for three different time points (30 minutes, 3 hours, and 24 hours), inside 6-well petri dishes with 2 mL of appropriate medium. Plates were incubated for 24 hours in 5% CO2 incubators at 37° C. After 24 hours, each 6-well plate was washed with PBS (Gibco Life Technologies, cat. no. 10010023) followed by fresh media being added along with each cell line's vehicle control or appropriate modulator for each specific time point, and were placed in CO2 incubators until their modulation time point was reached. Other conditions can be readily used, such as processing on automated systems such as SnapPath. At the end of each time point, while keeping plates on ice, cell lysis was conducted by aspirating culture medium from each plate, washing of each plate three times with 5 ml of cold PBS (Gibco Life Technologies, cat. no. 10010023) and culminated with the addition of cold 1× lysis buffer containing (Cell Signaling, cat. no. 9803 S) protease inhibitor cocktail (Cell Signaling, cat. no. 5871S), phosphatase inhibitor cocktail (Cell Signaling, cat. no. 5870S), and PMSF (Fisher Scientific, cat. no. ICN19538101). Plates were then placed on ice for ten minutes, swirling each plate intermittently. Aliquots of protein lysates were prepared and then stored at −80° C. until protein quantification and Western blot analysis was to be conducted. The protein concentration of each lysate was analyzed by using the Pierce 660 Protein Assay Reagent (Thermo Fisher Scientific, cat. no. 22660) and testing of each sample was conducted in duplicate. Two μg of protein was then loaded per lane into 10% Midi-PROTEAN TGX Precast Gels (Bio Rad, cat. no. 5671034) along with Kaleidoscope Prestained Protein Standard (BioRad, cat. no. 1610375) which ran at 220V for 45 minutes. Proteins were transferred to mini-PVDF membranes (BioRad, cat. no. 1704156) in 3 minutes using the Trans-Blot Turbo Transfer System (BioRad, cat. no. 1704150EDU).

The next assay concerns H1650 cells. As to the kind of experiment: PD-L1 western blot after modulators (EM and MTAs). The following applies: NSCLC H1650, 30 minutes, 3 hours, 24 hours.
Text: as §1, §4, §5

In a further assay the test system is H1975 cells. Nature of the assay: PD-L1 western blot after modulators (EM and MTAs). The following applies: NSCLC H1975, 30 minutes, 3 hours, 24 hours.
Text: as §1, §2, §3

The test system of the next assay is BT20 cells. Nature of the assay: PD-L1 western blot after modulators (EM and MTAs). The note with it: Breast BT20, 30 minutes, 3 hours, 24 hours.
Text: as §1, §2, §3

Regarding “GM-CSF: enhancer molecule, 50 ng/ml; Sigma Aldrich”, the “PD-L1 Response” value with H2087 cells was “Up”. The “regulation of PD-L1 across samples” value in assay [1] is “only led to upregulation”.

With “TGFb: enhancer molecule, 1 ng/ml; Sigma Aldrich”, the “regulation of PD-L1 across samples” value in assay [1] is “only led to upregulation”.

B1: TNFb: enhancer molecule, 50 ng/ml; Sigma Aldrich (protein, UniProt P01374 35-205, looked up)
Lymphotoxin-alpha: LPGVGLTPSAAQTARQHPKMHLAHSTLKPAAHLIGDPSKQNSLLWRANTDRAFLQDGFSLSNNSLLVPTSGIYFVYSQVVFSGKAYSPKATSSPLYLAHEVQLFSSQYPFHVPLLSSQKMVYPGLQEPWLHSMYHGAAFQLTQGDQLSTHTDGIPHLVLSPSTVFFGAFAL
On to B1, for which the “PD-L1 Response” value in the assay on H1650 cells is “Up”; in the assay on H1975 cells it was “Up”; with H2087 cells, “Down”; in the assay with BT20 cells it was “Up”. In addition, the “regulation of PD-L1 across samples” value in assay [1] is “both up and down regulation”.

B2: IL12: interleukin modulator, 50 ng/ml; Sigma Aldrich (protein, UniProt P29459 23-219; P29460 23-328, looked up)
Interleukin-12 subunit alpha: RNLPVATPDPGMFPCLHHSQNLLRAVSNMLQKARQTLEFYPCTSEEIDHEDITKDKTSTVEACLPLELTKNESCLNSRETSFITNGSCLASRKTSFMMALCLSSIYEDLKMYQVEFKTMNAKLLMDPKRQIFLDQNMLAVIDELMQALNFNSETVPQKSSLEEPDFYKTKIKLCILLHAFRIRAVTIDRVMSYLNAS
Interleukin-12 subunit beta: IWELKKDVYVVELDWYPDAPGEMVVLTCDTPEEDGITWTLDQSSEVLGSGKTLTIQVKEFGDAGQYTCHKGGEVLSHSLLLLHKKEDGIWSTDILKDQKEPKNKTFLRCEAKNYSGRFTCWWLTTISTDLTFSVKSSRGSSDPQGVTCGAATLSAERVRGDNKEYEYSVECQEDSACPAAEESLPIEVMVDAVHKLKYENYTSSFFIRDIIKPDPPKNLQLKPLKNSRQVEVSWEYPDTWSTPHSYFSLTFCVQVQGKSKREKKDRVFTDKTSATVICRKNASISVRAQDRYYSSSWSEWASVPCS
For the molecule B2, in the assay with H1975 cells, the “PD-L1 Response” value is “Down”.
